The text below walks through data of paper doi:10.1101/2020.09.01.276469 (bioRxiv, 2020).

The chains are these.
T1: TPX2 amino acids 1-178 (Xenopus laevis, UniProt Q6NUF4 1-178)
T1 sequence (looked up): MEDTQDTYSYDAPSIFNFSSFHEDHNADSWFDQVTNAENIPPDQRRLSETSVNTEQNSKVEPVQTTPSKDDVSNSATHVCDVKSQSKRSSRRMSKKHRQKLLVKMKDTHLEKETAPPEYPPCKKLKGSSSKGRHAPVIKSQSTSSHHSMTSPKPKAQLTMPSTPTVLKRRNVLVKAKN

T2: TPX2 amino acids 1-260 (Xenopus laevis, UniProt Q6NUF4 1-260)
T2 sequence (looked up): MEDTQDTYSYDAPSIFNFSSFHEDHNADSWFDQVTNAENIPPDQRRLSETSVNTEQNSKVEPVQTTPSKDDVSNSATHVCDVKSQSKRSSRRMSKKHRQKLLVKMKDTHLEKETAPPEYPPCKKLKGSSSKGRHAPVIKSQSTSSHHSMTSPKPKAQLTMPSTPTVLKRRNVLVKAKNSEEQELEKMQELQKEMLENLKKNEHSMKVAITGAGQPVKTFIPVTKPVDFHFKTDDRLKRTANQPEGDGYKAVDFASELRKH

B1: importin-α/β heterodimer (GST-importin-α bound to importin-β) (complex)
chain 1: not shown
chain 2: MELVTILEKTVSPDRNELEAAQKFLEQAAVENLPTFVVELSKVLANPANSQVARVAAGLQIKNPLTSRDPDVKAQYQQRWLAIDASARGEIKTYVLRTLGTESYRPSSASQCVAGIACAEITVNQWPQLIPQLVANVTDPNSTERMKESTLEAIGYICQDIDPEQLQHKSNEILTAIIQGMRKEEPSNNVRLAATNALLNSLEFTKANFDKESERHYIMQVVCEATQCPDTRVRVAALQNLVKIMSLYYQYMETYMGPALFAITVEAMKNEIDEVALQGIEFWSNVCDEEMDLAIEASEAAEQGRPPEHTSKFYAKGALQYLVPILTQTLTKQDENDDDDDWNPCKAAGVCLMLLATCCEDDIVPHVLPFIKEHIKNPDWRYRDAAVMAFGCILEGPESCQLKPLVIQAMPTLIELMKDPSVVVRDTTAWTVGRICELLPEAAINDVYLAPLLQCLIEGLGAEPRVASNVCWAFSSLAEAAYEAADVADDQEEPSSYCLSSSFEVIVQKLLETTDRPDGHQNNLRSAAYEALMEIVKNSAKDCYPAVQKTTLVIMERLQQVLQVESHIQSTSDRIQFNDLQSLLCATLQNVLRKVQHQDALQISDVVMASLLRMFQSTAGSGGVQEDALMAVSTLVEVLGAEFLKYMEAFKPFLTIGLKNYAEYQVCLAAVGLVGDLCRALQSNILPFCDEMMQFLLENLGNENVHRSVKPQILSVFGDVALAIGGEFKKYLDVVLNTLQQASQAQVDKSDYDMVDYLNELREGCIEAYTGIIQGLKGDQENVHPDVMLVQPRVEFILSFIDHIAGDEDHTDSVVACGAGLIGDLCTAFGKDVLKLVEARPMIHELLTEGRRSKTNKTKTLATWATKELRKLKNQA
B2: importin-β (natural protein, Xenopus laevis, UniProt P52297 1-876, looked up)
chain: B1 chain 2
B3: importin-αΔIBB (importin-α without the importin-β binding domain) (domain or fragment)
chain: not shown
B4: TPX2 N-terminus (a.a. 1-480) (domain or fragment, Xenopus laevis, UniProt Q6NUF4 1-480, looked up)
chain: MEDTQDTYSYDAPSIFNFSSFHEDHNADSWFDQVTNAENIPPDQRRLSETSVNTEQNSKVEPVQTTPSKDDVSNSATHVCDVKSQSKRSSRRMSKKHRQKLLVKMKDTHLEKETAPPEYPPCKKLKGSSSKGRHAPVIKSQSTSSHHSMTSPKPKAQLTMPSTPTVLKRRNVLVKAKNSEEQELEKMQELQKEMLENLKKNEHSMKVAITGAGQPVKTFIPVTKPVDFHFKTDDRLKRTANQPEGDGYKAVDFASELRKHPPSPVQVTKGGHTVPKPFNLSKGKRKHEEASDYVSTAEQVIAFYKRTPARYHLRSRQREMEGPSPVKMIKTKLTNPKTPLLQTKGRHRPVTCKSAAELEAEELEMINQYKFKAQELDTRILEGGPVLLKKPLVKEPTKAIGFDLEIEKRIQQREKKEEIEEETFTFHSRPCPSKMLTDVVGVPLKKLLPVTVPQSPAFALKNRVRIPAQEEKQEEMVPVI
B5: Targeting Protein for XKlp2 (TPX2), full length, GFP-tagged (natural protein, Xenopus laevis, UniProt Q6NUF4 1-716, looked up)
chain: MEDTQDTYSYDAPSIFNFSSFHEDHNADSWFDQVTNAENIPPDQRRLSETSVNTEQNSKVEPVQTTPSKDDVSNSATHVCDVKSQSKRSSRRMSKKHRQKLLVKMKDTHLEKETAPPEYPPCKKLKGSSSKGRHAPVIKSQSTSSHHSMTSPKPKAQLTMPSTPTVLKRRNVLVKAKNSEEQELEKMQELQKEMLENLKKNEHSMKVAITGAGQPVKTFIPVTKPVDFHFKTDDRLKRTANQPEGDGYKAVDFASELRKHPPSPVQVTKGGHTVPKPFNLSKGKRKHEEASDYVSTAEQVIAFYKRTPARYHLRSRQREMEGPSPVKMIKTKLTNPKTPLLQTKGRHRPVTCKSAAELEAEELEMINQYKFKAQELDTRILEGGPVLLKKPLVKEPTKAIGFDLEIEKRIQQREKKEEIEEETFTFHSRPCPSKMLTDVVGVPLKKLLPVTVPQSPAFALKNRVRIPAQEEKQEEMVPVIKATRMPHYGVPFKPKLVEQRQVDVCPFSFCDRDKERQLQKEKRLDELRKDEVPKFKAQPLPQFDNIRLPEKKVKMPTQQEPFDLEIEKRGASKLQRWQQQIQEELKQQKEMVVFKARPNTVVHQEPFVPKKENRSLTESLSGSIVQEGFELATAKRAKERQEFDKCLAETEAQKSLLEEEIRKRREEEEKEEISQLRQELVHKAKPIRKYRAVEVKASDVPLTVPRSPNFSDRFKC

The target of series [1] is B5. As to the kind of experiment: SEC-MALS.
In series [2] the target is GST-importin-α (full length) (Xenopus laevis). Briefly: SEC-MALS. In general terms: In gel filtration, larger molecules generally elute earlier.
The series “SEC-MALS” deals with the molecule itself. Briefly: SEC-MALS.
Series [3] addresses B5. As to the kind of experiment: BLI. In general terms: Biolayer interferometry detects binding as a change in optical thickness at a sensor tip.
The target of the next series is T1, TPX2 amino acids 1-178. Briefly: BLI.
A further series deals with T2, TPX2 amino acids 1-260. Briefly: BLI.
In the series “importin-β” the target is B2. Briefly: BLI.
In series [4] the target is B1. As to the kind of experiment: BLI.

For the molecule B1, the stoichiometry N (usually the number of molecules, sites or subunits per partner or assembly) in series [1] was 1.

In the case of B2, the “stoichiometry N” value in series [2] turned out to be 1.

As for B3, the “stoichiometry N” value in series [1] is at least 1; in the series “SEC-MALS”, 2. Also, the Kd (as a rule, a measure of binding affinity in units of concentration) in series [3] was 61 ± 10 nM; with TPX2 amino acids 1-178 it was 15 ± 3 nM; with TPX2 amino acids 1-260, 20 ± 4 nM.

In the series with importin-β, B4 yielded a dissociation constant Kd of 512 ± 70 nM.

On to B5, for which the Kd was 75 ± 15 nM in series [4] and 530 ± 75 nM with importin-β.
